Data on 94 variants can be found in the supplement of paper PMC10567573.

To fix the notation:
B1: TFE3 (parent)
chain: FPSDHLGDLGDPFHLGLEDILMEE
B2: PLAGL1 (parent)
chain: LELGSTEVLLDHLKAHAEEKPPSG
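Further: lentivirally expressed fusions sorted by FACS into six bins by GFP to DsRed ratio, PSI derived from sequencing read proportions per bin multiplied by bin number.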

The variants in one series derive from B1. The series is described as follows: protein stability index of a GFP-peptide fusion (GPS, HEK-293T) (PSI 1-6); higher = more stable. The note with it: c terminus: a fixed tail appended.
Turning to FPSDHLGDLGDPFHLGLEDELMEE, the protein stability index came to 4.2.

Turning to FPSDHLGDLGDPFHLGLEDLLMEE, the protein stability index was 3.91.

Consider FPSDHLGDLGDPFHLGLEDWLMEE, for which the protein stability index came out at 3.5.

Regarding FPSDHLGDLGDPFHLGLEDMLMEE, the protein stability index was 3.63.

Regarding FPSDHLGDLGDPFHLGLEDSLMEE, the protein stability index stood at 3.7.

Consider FPSDHLGDLGDPFHLGLEDFLMEE, for which the protein stability index is 3.82.

On to FPSDHLGDLGDPFHLGLEDVLMEE, for which the protein stability index stood at 3.48.

In the case of FPSDHLGDLGDPFHLGLEDKLMEE, the protein stability index was 4.05.

FPSDHLGDLGDPFHLGLEDRLMEE: the protein stability index came out at 3.5.

With FPSDHLGDLGDPFHLGLEDPLMEE, the protein stability index worked out at 3.77.

Take FPSDHLGDLGDPFHLGLEDHLMEE: the protein stability index amounted to 3.92.

For the variant FPSDHLGDLGDPFHLGLEDNLMEE, the protein stability index was 4.29.

For the variant FPSDHLGDLGDPFHLGLEDYLMEE, the protein stability index stood at 3.88.

Turning to FPSDHLGDLGDPFHLGLEDGLMEE, the protein stability index turned out to be 4.16.

With FPSDHLGDLGDPFHLGLEDTLMEE, the protein stability index was 3.97.

For the variant FPSDHLGDLGDPFHLGLEDQLMEE, the protein stability index worked out at 4.37.

As to FPSDHLGDLGDPFHLGLEDILMFE, the protein stability index was found to be 2.42.

FPSDHLGDLGDPFHLGLEDILMAE: the protein stability index turned out to be 2.45.

Take FPSDHLGDLGDPFHLGLEDILMSE: the protein stability index was 2.81.

For the variant FPSDHLGDLGDPFHLGLEDILMWE, the protein stability index was found to be 2.56.

As to FPSDHLGDLGDPFHLGLEDILMDE, the protein stability index is 2.86.

As for FPSDHLGDLGDPFHLGLEDILMLE, the protein stability index came to 2.44.

With FPSDHLGDLGDPFHLGLEDILMPE, the protein stability index worked out at 2.76.

Take FPSDHLGDLGDPFHLGLEDILMME: the protein stability index worked out at 2.33.

With FPSDHLGDLGDPFHLGLEDILMIE, the protein stability index was 2.62.

Consider FPSDHLGDLGDPFHLGLEDILMHE, for which the protein stability index is 2.86.

On to FPSDHLGDLGDPFHLGLEDILMYE, for which the protein stability index stood at 2.3.

Consider FPSDHLGDLGDPFHLGLEDILMQE, for which the protein stability index is 3.26.

As for FPSDHLGDLGDPFHLGLEDILMRE, the protein stability index was found to be 2.95.

For FPSDHLGDLGDPFHLGLEDILMKE, the protein stability index was 3.34.

For FPSDHLGDLGDPFHLGLEDILMVE, the protein stability index was 3.85.

For FPSDHLGDLGDPFHLGLEDILMGE, the protein stability index was 2.47.

Regarding FPSDHLGDLGDPFHLGLEDILMTE, the protein stability index stood at 3.24.

FPSDHLGDLGDPFHLGLEDILMNE: the protein stability index came out at 2.65.

Regarding FPSDHLGDLGDPFHLGLEDILMCE, the protein stability index amounted to 2.03.

Consider FPSDHLGDLGDPFHLGLEDILMEK, for which the protein stability index is 2.59.

As to FPSDHLGDLGDPFHLGLEDILMEW, the protein stability index was determined as 1.8.

FPSDHLGDLGDPFHLGLEDILMEM: the protein stability index amounted to 2.62.

Take FPSDHLGDLGDPFHLGLEDILMEG: the protein stability index was found to be 2.91.

In the case of FPSDHLGDLGDPFHLGLEDILMET, the protein stability index is 2.95.

Take FPSDHLGDLGDPFHLGLEDILMEQ: the protein stability index is 2.96.

For FPSDHLGDLGDPFHLGLEDILMEP, the protein stability index was determined as 2.77.

Consider FPSDHLGDLGDPFHLGLEDILMEA, for which the protein stability index is 2.64.

With FPSDHLGDLGDPFHLGLEDILMES, the protein stability index came to 2.91.

On to FPSDHLGDLGDPFHLGLEDILMEF, for which the protein stability index turned out to be 1.92.

Take FPSDHLGDLGDPFHLGLEDILMEC: the protein stability index came to 2.96.

Regarding FPSDHLGDLGDPFHLGLEDILMEY, the protein stability index is 2.35.

With FPSDHLGDLGDPFHLGLEDILMEH, the protein stability index worked out at 2.75.

On to FPSDHLGDLGDPFHLGLEDILMEL, for which the protein stability index came to 1.97.

For the variant FPSDHLGDLGDPFHLGLEDILMER, the protein stability index is 2.87.

Consider FPSDHLGDLGDPFHLGLEDILMED, for which the protein stability index is 3.54.

As to FPSDHLGDLGDPFHLGLEDILMEI, the protein stability index stood at 1.97.

As to FPSDHLGDLGDPFHLGLEDILMEN, the protein stability index is 3.49.

Take FPSDHLGDLGDPFHLGLEDILMEV: the protein stability index came out at 1.59.

In the case of FPSDHLGDLGDPFHLGLEDIDMEE, the protein stability index was 4.26.

With FPSDHLGDLGDPFHLGLEDISMEE, the protein stability index is 3.69.

With FPSDHLGDLGDPFHLGLEDIYMEE, the protein stability index turned out to be 3.31.

Regarding FPSDHLGDLGDPFHLGLEDICMEE, the protein stability index amounted to 3.42.

For FPSDHLGDLGDPFHLGLEDIKMEE, the protein stability index was 4.06.

Regarding FPSDHLGDLGDPFHLGLEDIQMEE, the protein stability index turned out to be 3.94.

For the variant FPSDHLGDLGDPFHLGLEDITMEE, the protein stability index turned out to be 3.93.

On to FPSDHLGDLGDPFHLGLEDIGMEE, for which the protein stability index was 3.88.

In the case of FPSDHLGDLGDPFHLGLEDIIMEE, the protein stability index was determined as 3.32.

Consider FPSDHLGDLGDPFHLGLEDIEMEE, for which the protein stability index is 4.28.

In the case of FPSDHLGDLGDPFHLGLEDIPMEE, the protein stability index turned out to be 4.18.

Consider FPSDHLGDLGDPFHLGLEDIFMEE, for which the protein stability index worked out at 3.28.

Consider FPSDHLGDLGDPFHLGLEDIHMEE, for which the protein stability index worked out at 4.08.

As to FPSDHLGDLGDPFHLGLEDIRMEE, the protein stability index came out at 3.78.

FPSDHLGDLGDPFHLGLEDIAMEE: the protein stability index stood at 4.03.

Regarding FPSDHLGDLGDPFHLGLEDIMMEE, the protein stability index is 3.38.

FPSDHLGDLGDPFHLGLEDIWMEE: the protein stability index turned out to be 3.14.

As to FPSDHLGDLGDPFHLGLEDIVMEE, the protein stability index was found to be 3.4.

On to FPSDHLGDLGDPFHLGLEDINMEE, for which the protein stability index was 3.85.

Regarding FPSDHLGDLGDPFHLGLEDILREE, the protein stability index stood at 3.33.

Take FPSDHLGDLGDPFHLGLEDILAEE: the protein stability index turned out to be 3.31.

Consider FPSDHLGDLGDPFHLGLEDILVEE, for which the protein stability index was 3.08.

Turning to FPSDHLGDLGDPFHLGLEDILDEE, the protein stability index came out at 4.26.

As to FPSDHLGDLGDPFHLGLEDILHEE, the protein stability index was determined as 3.7.

Turning to FPSDHLGDLGDPFHLGLEDILCEE, the protein stability index is 3.53.

As for FPSDHLGDLGDPFHLGLEDILSEE, the protein stability index was determined as 3.87.

Consider FPSDHLGDLGDPFHLGLEDILNEE, for which the protein stability index turned out to be 4.04.

With FPSDHLGDLGDPFHLGLEDILYEE, the protein stability index was 3.13.

As for FPSDHLGDLGDPFHLGLEDILEEE, the protein stability index came to 4.79.

As for FPSDHLGDLGDPFHLGLEDILWEE, the protein stability index amounted to 3.16.

Consider FPSDHLGDLGDPFHLGLEDILIEE, for which the protein stability index turned out to be 3.35.

On to FPSDHLGDLGDPFHLGLEDILGEE, for which the protein stability index turned out to be 3.64.

On to FPSDHLGDLGDPFHLGLEDILFEE, for which the protein stability index stood at 3.14.

As for FPSDHLGDLGDPFHLGLEDILTEE, the protein stability index was 3.72.

As to FPSDHLGDLGDPFHLGLEDILKEE, the protein stability index was 3.98.

As to FPSDHLGDLGDPFHLGLEDILLEE, the protein stability index was 3.24.

As for FPSDHLGDLGDPFHLGLEDILPEE, the protein stability index is 3.71.

Turning to FPSDHLGDLGDPFHLGLEDILQEE, the protein stability index came to 3.75.

In a further series the parent is B2. The description is as above. The note with it: c terminus: a fixed tail appended.
Turning to LELGSTEVWLDHLKAHAEEKPPSG, the protein stability index worked out at 4.11.

As for LELGSTEVFLDHLKAHAEEKPPSG, the protein stability index turned out to be 4.79.
